# The RNAGym collection of RNA variant scans (doi:10.1073/pnas.2313332121)
# Variants at the floor of the assay were thinned out.
# B1: TPR 5TU (parent)
# chain: GGAUCUUCUCGAUCUAACAAAAAAGACAAAUCUGCCACAAAGCUUGAGAGCAUCUUCGGAUGCAGAGGCGGCAGCCUUCGGUGGCGCGAUAGCGCCAACGUUCUCAACUAUGACACGCAAAACGCGUGCUCCGUUGAAUGGAGUUUAUCAUG
# Variants of: B1
# Test: polymerase ribozyme fitness, log enrichment relative to wild type (log ratio); higher = more active; in vitro selection for triplet polymerase activity
# Procedure, shortened: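 Fitness compares each genotype's enrichment to that of the wild type on a logarithmic scale, averaging replicates with inverse-variance weights. The logarithm is base 2. Enrichment came from Illumina sequencing of input and output libraries after one triplicate round of in vitro selection, which included frozen incubation at −7 °C, of PCR-built, transcribed mutant libraries of each subunit of a heterodimeric triplet polymerase ribozyme. Only genotypes with ≥10 input reads and ≥1 read per output were kept.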
row,Variant,polymerase ribozyme fitness (log ratio)
1,G59U C96U A142G,-1.66
2,A97G C123U,0.215
3,A29G U31A C96U C114U G140C,≤ -4.2
4,C99G G124A G141U,-0.199
5,U44A C76U G86U A121U,-3.86
6,A66C C85G,-4.16
7,U55G C57G U101G,0.189
8,C14U G67A U151C,≤ -4.2
9,A28C G65U G68A A91U,≤ -4.2
10,A66U C96A U111A A122G A138C,≤ -4.2
11,A52C C85A A121G,-1.8
12,G50C A52C C105A C125A A142C U146A,≤ -4.2
13,A3G A16G A24C A49G G80C,≤ -4.2
14,A39C C54A G65C C93A G124U A138C,≤ -4.2
15,C32G A47C U55A U56G G67U G88A G100C C105U A137U G141U,≤ -4.2
16,A60G C85G G94A,-0.0985
17,A37U A66G C149U G152C,≤ -4.2
18,C79A A106G U146G,≤ -4.2
19,G11C G59A A73G U82G,-2.2
20,C32U C87U C103G,≤ -4.2
21,A39U U77G G124C U135G U146A,≤ -4.2
22,A28U C54U C76A C114U,-3.97
23,A21G G81A C95U A107G A119C G141U,≤ -4.2
24,U31G C57U G83C C87A,≤ -4.2

row,Variant,polymerase ribozyme fitness (log ratio)
1,C36A A73G C96U A121C C131U,≤ -4.2
2,C54A C85G C95G C114A U134G,≤ -4.2
3,A21C C93A C99U G136U A142U,≤ -4.2
4,U61G C93A,-4.13
5,U53G C87U A120C,-2.07
6,A20C C43U U44A U55G C79U G141A,≤ -4.2
7,U56A C57U U82A G84A G92U A106C G143C,≤ -4.2
8,U55G G83A,-0.31
9,A19G G83A C85A C96U A97C A119G,≤ -4.2
10,A17G G141C,0.607
11,G48A G50C,-3.83
12,G34A C87U A89U G100A C103G A107U G124C U135G G140A G141C,≤ -4.2
13,A12C A39U G59A A91U C93U A150C,≤ -4.2
14,A120U U145C,-0.0409
15,A52G G81A G83A A98U,-1.22
16,G62A A121G,-0.384
17,A37C A41C U53G G59A G84A C103A U145A,≤ -4.2
18,C14G A28G U53A C63U A89C A106U G126A G141A,≤ -4.2
19,A16G U31A A39U C132U G136A,-3.4
20,A30U C79U G83C,≤ -4.2
21,U6G A16U G58A G141U,-1.34
22,G46A G84A,-2.74
23,A115C G133U,-3.74
24,A41C A49G U82A A91G,≤ -4.2

row,Variant,polymerase ribozyme fitness (log ratio)
1,U55G C93U,-1.83
2,C14U C93U U127A C131A,≤ -4.2
3,C10A C32A U56G G80C U82G C87U A98U,≤ -4.2
4,U4G A21C C93G,-1.92
5,C38U C51U U56A G94U C105A A121U,-4.15
6,C5G A19G A24C A40U U55A G83U G86U,≤ -4.2
7,A16C G86U,-2.65
8,A28C A52U U55G C87G C125U G152A,≤ -4.2
9,A73C A113C,≤ -4.2
10,C35U U127G,-4.01
11,G94A A119U,-2.21
12,U15G G88A,-4.08
13,U77A C85U A91G G133C A142G,≤ -4.2
14,A3U C87G A113C,-4.19
15,U45G C114U,-2.91
16,U13G C85U C96U G100A A115C,≤ -4.2
17,C36U U77G A98U U134A,≤ -4.2
18,U53A A137U,≤ -4.2
19,A17G G59A G143C,-1.26
20,A16U A19U,-2.39
21,A26U A40C G68C G71U U82A A119C C125A A150C,≤ -4.2
22,A98G A115G U135G,-3.81
23,A39U C51G U55G U61G C85U C99U,≤ -4.2
24,G46A A47G G48A G50C G136A,≤ -4.2

row,Variant,polymerase ribozyme fitness (log ratio)
1,A39C U56G A73G,-3.36
2,C69A G117A,-0.631
3,A20G A22C C93A,-3.38
4,A20U U31C A49C C57U A60G G62C C96A,-4.15
5,A26C A52G,-1.25
6,A20G C85U G94U C95G C125U,-3.59
7,C54G A66C G70C G100C,≤ -4.2
8,G59C G124A,-1.57
9,G59A,-0.0739
10,U31C A39C C54U A73G U90G G124A,≤ -4.2
11,A19G C38U G50A G86A C105A C116A A121U G141C,≤ -4.2
12,A39G C75U C85U,-3.44
13,A41U C87U A137U G143U,≤ -4.2
14,G50U A106G,0.264
15,A21U A30G C57U A91U U104A G126A,≤ -4.2
16,A24G A40C U55G A97U,≤ -4.2
17,U45A C51A G84A,≤ -4.2
18,C32U A89U,-2.63
19,G62U C72G C93A,≤ -4.2
20,C54G U101G C118U,-2.4
21,C93A C96G A97C U148A,≤ -4.2
22,A29U C87U A122U U145C,-3.85
23,G67C A97C C103G C125U C129U A142U G143C A150U,≤ -4.2
24,C5G U6G U7G C14G A28C A30C G50C C51G A89G C93G G94U C105U C118A G133A,≤ -4.2

row,Variant,polymerase ribozyme fitness (log ratio)
1,A40C G48C G81U C85A,-1.52
2,C36G G84A,-4.19
3,U127A U134C G141C,-3.82
4,A97U C125A,-0.436
5,C10U A22U C79A G83C A106U,≤ -4.2
6,U53A C93A C105A A119G,≤ -4.2
7,G50C C95U,-3.47
8,U61A C85G,≤ -4.2
9,A17G A49U G71C C79A A106U,≤ -4.2
10,G71C C95U C132U G141A U146G,≤ -4.2
11,C63A A64C,-1.46
12,A106C C114A G140C G141C,≤ -4.2
13,A39C G65C G83C G143A A150U,≤ -4.2
14,A39U G74A C85U A91C C125A,≤ -4.2
15,U6A C38U U44A U82G C85U C95A U101G,≤ -4.2
16,C85A A91G,-3.36
17,U53A C54G,-2.2
18,A17U A19U C93G U111G,≤ -4.2
19,A73U G100U U104A G126C,≤ -4.2
20,A20C G83U A89U A97U,-2.13
21,U61G G68A U77C C87U C93G C123U G126C U135C,≤ -4.2
22,C93A A106G,-1.9
23,U4A C43U G65U U77C U111G,≤ -4.2
24,C8U A106G,-2.98

row,Variant,polymerase ribozyme fitness (log ratio)
1,A20U U82G C93U,-2.36
2,A97G C131G,-3.21
3,C103G C108G G124C U144A U145G,≤ -4.2
4,C87U C118U G143C,-2.54
5,U33A A91G,≤ -4.2
6,G11U A40U G42C G84C G100U A107U U134G,≤ -4.2
7,C10G C38U C87A C93G,≤ -4.2
8,A26U A40U A91U A122U,≤ -4.2
9,A60G U144A,-0.159
10,A3C A20C C38U A41C U53A G71A C93A G94U G126C,≤ -4.2
11,C85A G112U A113C U148G,≤ -4.2
12,G25C A41C A52G G86A C96A,≤ -4.2
13,A60G C129G,-2.25
14,U45A A91C C95G A142U,≤ -4.2
15,U31C A60C C95A C99G A122G,-3.66
16,A3U U56A,-1
17,A37G G74U C87G A115C,≤ -4.2
18,G25U G42A A49C G80A C85G C95U C103A,≤ -4.2
19,A23C U31G C108G A115G,≤ -4.2
20,C51U C54U C76A G86A,-2.96
21,C27U A97G C131A U151C,≤ -4.2
22,C35A C79A G83A C99A,≤ -4.2
23,C85U C87U,0.308
24,C32A C75G G92A A150U,≤ -4.2

row,Variant,polymerase ribozyme fitness (log ratio)
1,U82A C96G,-0.244
2,C43U A138C,≤ -4.2
3,C57U C79G,-3.67
4,C27A U33C G88C G141C,≤ -4.2
5,C75G C85U,-3.58
6,U6G A47C C87A,≤ -4.2
7,U31A C85U C114U,-1.15
8,C85U A150C G152U,-3.38
9,A37G A73U G94A A97C G124A,≤ -4.2
10,A26U A91G A115G A150C,≤ -4.2
11,G70A G100C,≤ -4.2
12,G83A C95U,-0.657
13,U7A U111G,-4.19
14,G81A G152C,-3.29
15,A41C C96A,-0.56
16,A17G G58A C93U U101G U139A,≤ -4.2
17,G58A A73G C116U,0.431
18,C14G G83A C96U A110G A142U U148A,≤ -4.2
19,G67U C87U,-3.88
20,C116G,0.655
21,U15G C27A U146A,≤ -4.2
22,A24G A30U G42U C72U A91G A120C,≤ -4.2
23,U77G A91G G152A,≤ -4.2
